Assay results taken from the Human Domainome abundance scans (Beltran et al. 2025).
± gives the uncertainty stated by the source.

B1: Zinc finger homeobox protein 3, residues 2244 to 2299; numbered along this chain, Q15911 (parent)
chain: SSRTRFTDYQLRVLQDFFDANAYPKDDEFEQLSNLLNLPTRVIVVWFQNARQKARK

Variants of: B1
Test: abundance fitness (aPCA) (normalised: wild type 0, dead -1); higher = more abundant; growth selection in yeast, the domain comes from the species named
Settings: Homo sapiens

Abundance fitness: each site, then its substitutions
L38: G -0.884 ± 0.094; V -0.226 ± 0.082; P -1.03 ± 0.19; C -0.451 ± 0.16; H -0.967 ± 0.3; R -0.517 ± 0.085; S -0.506 ± 0.11; F -0.522 ± 0.31; Q -0.174 ± 0.13; N -0.76 ± 0.47; T -0.166 ± 0.12; Y -0.625 ± 0.25; E -0.278 ± 0.11; D -1.07 ± 0.35; K -0.531 ± 0.17; M -0.026 ± 0.13
S33: G -0.083 ± 0.075; K -0.129 ± 0.18; V -0.452 ± 0.1; H -0.085 ± 0.17; M -0.638 ± 0.17; C -0.498 ± 0.15; N -0.728 ± 0.23; I -1.08 ± 0.36; Q -0.507 ± 0.17; Y -0.871 ± 0.23; W -0.848 ± 0.13; A -0.109 ± 0.1; E -0.5 ± 0.15; D -0.833 ± 0.18; R -0.05 ± 0.077; T -0.316 ± 0.14
L36: G -0.929 ± 0.12; Q -0.988 ± 0.29; K -0.95 ± 0.34; V 0.024 ± 0.098; S -0.272 ± 0.11; T 0.013 ± 0.13; A -0.238 ± 0.13; D -0.908 ± 0.28; E -0.892 ± 0.18; F -0.659 ± 0.19; R -0.748 ± 0.11; W -0.811 ± 0.15; I -0.459 ± 0.32; C -0.313 ± 0.12; P -1.06 ± 0.25; M -0.375 ± 0.24; H -1.06 ± 0.46; Y -0.86 ± 0.35
F29: P -0.915 ± 0.17; R -0.324 ± 0.078; Q -0.435 ± 0.16; H -0.484 ± 0.24; Y -0.052 ± 0.15; K -0.412 ± 0.14; L -0.035 ± 0.1; M -0.271 ± 0.14; S -0.423 ± 0.082; A -0.362 ± 0.09; T -0.27 ± 0.13; W -0.27 ± 0.094; I 0.071 ± 0.13; N -0.622 ± 0.16; D -0.955 ± 0.22; V -0.102 ± 0.079
P39: N -0.157 ± 0.098; K -0.197 ± 0.17; C -0.634 ± 0.12; H -0.149 ± 0.082; L -0.786 ± 0.091; D 0.196 ± 0.098; R -0.258 ± 0.082; F -0.715 ± 0.12; Y -0.99 ± 0.12; E -0.06 ± 0.15; G -0.297 ± 0.09; T -0.209 ± 0.087; S 0.035 ± 0.073; W -1.08 ± 0.23; V -1.09 ± 0.14; A -0.342 ± 0.095; Q -0.028 ± 0.11
V44: H -0.524 ± 0.27; D 0.121 ± 0.19; G 0.034 ± 0.083; I -0.223 ± 0.2; F -0.174 ± 0.32; W -0.084 ± 0.12; L -0.005 ± 0.11; T -0.056 ± 0.15; R -0.093 ± 0.092; Q -0.015 ± 0.15; M -0.031 ± 0.13; E -0.059 ± 0.11; K -0.071 ± 0.16; Y -0.571 ± 0.21; A -0.134 ± 0.1; S 0.08 ± 0.13
Q48: V -0.066 ± 0.12; I -0.085 ± 0.17; W -0.554 ± 0.15; E 0.086 ± 0.14; F -0.245 ± 0.19; R -0.071 ± 0.09; H -0.407 ± 0.19; L -0.309 ± 0.12; A -0.146 ± 0.13; S -0.022 ± 0.1; T -0.168 ± 0.14; C -0.221 ± 0.18; K -0.034 ± 0.16; G -0.029 ± 0.085; N -0.259 ± 0.21
T40: I -0.175 ± 0.092; S 0.025 ± 0.073; H -0.127 ± 0.097; G -0.208 ± 0.077; Q -0.214 ± 0.11; C -0.012 ± 0.094; L -0.105 ± 0.073; M 0.073 ± 0.11; W -0.136 ± 0.11; K 0.221 ± 0.13; F -0.107 ± 0.087; R -0.139 ± 0.078; P -0.047 ± 0.089; D -0.356 ± 0.11; A -0.119 ± 0.079
Q31: S -0.082 ± 0.11; A -0.192 ± 0.12; M -0.146 ± 0.12; E -0.066 ± 0.13; K 0.022 ± 0.13; N 0.366 ± 0.27; Y -0.186 ± 0.24; I 0.117 ± 0.29; G -0.055 ± 0.085; F 0.162 ± 0.27; D -0.193 ± 0.39; C -0.031 ± 0.17; L -0.257 ± 0.11; W -0.279 ± 0.1; T 0.035 ± 0.13; P -0.764 ± 0.24; H -0.165 ± 0.21; R -0.007 ± 0.087
R41: S 0.021 ± 0.073; Y -0.119 ± 0.096; A 0.022 ± 0.079; P -0.046 ± 0.09; G 0.057 ± 0.079; V 0.108 ± 0.081; H 0.117 ± 0.087; M 0.005 ± 0.1; W -0.167 ± 0.14; F -0.011 ± 0.091; N 0.195 ± 0.093; C -0.002 ± 0.1; K 0.074 ± 0.12; L -0.075 ± 0.074; D 0.173 ± 0.1; I 0.052 ± 0.091; Q 0.018 ± 0.12
E30: S -0.135 ± 0.4; G -0.357 ± 0.38
V45: F -0.171 ± 0.1; C 0.088 ± 0.097; K -0.061 ± 0.095; Q 0.046 ± 0.089; E 0.244 ± 0.1; L -0.12 ± 0.076; S 0.008 ± 0.074; M -0.142 ± 0.083; T -0.028 ± 0.074; H 0.032 ± 0.092; I -0.055 ± 0.098; P -0.21 ± 0.076; G 0.077 ± 0.071; W -0.136 ± 0.1; D 0.155 ± 0.096; A 0.004 ± 0.074; Y -0.19 ± 0.11
N37: I -0.289 ± 0.16; H -0.013 ± 0.16; K -0.009 ± 0.14; V -0.117 ± 0.086; E -0.034 ± 0.1; F -0.236 ± 0.15; G -0.046 ± 0.076; R -0.057 ± 0.075; S -0.064 ± 0.096; M -0.038 ± 0.12; P -0.831 ± 0.19; T -0.179 ± 0.13; Q -0.12 ± 0.15; D -0.032 ± 0.13; A -0.096 ± 0.12
L35: S 0.007 ± 0.096; M 0.085 ± 0.13; Y -0.129 ± 0.16; K 0.201 ± 0.14; P -0.918 ± 0.2; G -0.06 ± 0.079; N -0.004 ± 0.19; H -0.088 ± 0.14; I 0.067 ± 0.17; V 0.041 ± 0.083; A -0.078 ± 0.089; F -0.382 ± 0.25; E -0.107 ± 0.13; D 0.115 ± 0.16; R 0.085 ± 0.083; T 0.117 ± 0.13; C -0.176 ± 0.13
L32: A -0.568 ± 0.1; V -0.151 ± 0.083; T -0.497 ± 0.13; E -0.957 ± 0.13; H -0.878 ± 0.24; M 0.003 ± 0.11; W -0.56 ± 0.1; Y -0.19 ± 0.31; D -0.637 ± 0.33; C -0.641 ± 0.14; G -0.842 ± 0.083; I -0.17 ± 0.27; R -0.856 ± 0.1; S -0.812 ± 0.13; P -1.02 ± 0.32; F -0.546 ± 0.16
N34: V 0.001 ± 0.14; Y -0.161 ± 0.41; K 0.137 ± 0.2; Q -0.208 ± 0.26; R -0.113 ± 0.19; M -0.024 ± 0.4; T -0.145 ± 0.2; G -0.058 ± 0.13; D -0.199 ± 0.26; E 0.118 ± 0.14; S 0.066 ± 0.16; W -0.61 ± 0.33; L -0.17 ± 0.15; C -0.343 ± 0.29; P -0.137 ± 0.2; A 0.067 ± 0.14
V42: L 0.039 ± 0.099; N 0.003 ± 0.18; M -0.059 ± 0.13; G -0.056 ± 0.087; A -0.045 ± 0.11; E 0.174 ± 0.11; K -0.036 ± 0.15; H 0.022 ± 0.19; Q -0.028 ± 0.15; W -0.146 ± 0.11; C -0.112 ± 0.13; P 0.026 ± 0.14; I -0.022 ± 0.33; T 0.186 ± 0.15; Y -0.134 ± 0.17; D 0.055 ± 0.19; R -0.083 ± 0.082
N49: F -0.581 ± 0.28; D 0.066 ± 0.18; A -0.222 ± 0.11; T -0.119 ± 0.11; G 0.046 ± 0.081; K -0.024 ± 0.17; M -0.287 ± 0.15; P -0.986 ± 0.2; H -0.249 ± 0.21; V -0.362 ± 0.11; Q -0.207 ± 0.14; E 0.141 ± 0.13; I -0.259 ± 0.17; R -0.207 ± 0.089; S -0.056 ± 0.11; L -0.334 ± 0.093; C -0.163 ± 0.12
W46: L -1.09 ± 0.15; C -0.759 ± 0.2; F -0.244 ± 0.19; H -0.617 ± 0.26; Q -1.17 ± 0.24; G -0.856 ± 0.1; T -0.611 ± 0.18; S -0.526 ± 0.13; D -1.14 ± 0.29; E -0.749 ± 0.13; M -0.81 ± 0.14; V -0.88 ± 0.11; K -0.764 ± 0.16; A -0.86 ± 0.15; P -1.07 ± 0.22
I43: K -0.744 ± 0.26; N -1 ± 0.29; Q -0.637 ± 0.19; L -0.163 ± 0.11; S -0.845 ± 0.13; T -0.396 ± 0.12; A -0.56 ± 0.11; E -1.07 ± 0.21; H -1.13 ± 0.28; W -0.879 ± 0.17; G -0.637 ± 0.11; C -0.36 ± 0.17; V -0.056 ± 0.1; M -0.439 ± 0.14; R -0.837 ± 0.094; D -0.772 ± 0.18; F -0.792 ± 0.24
F47: V -0.565 ± 0.083; H -0.534 ± 0.12; Y -0.112 ± 0.094; T -0.618 ± 0.095; N -0.928 ± 0.13; E -0.762 ± 0.2; L -0.639 ± 0.088; I -0.408 ± 0.096; G -0.66 ± 0.1; P -0.89 ± 0.12; Q -1.02 ± 0.17; R -0.941 ± 0.1; W -0.399 ± 0.14; A -0.729 ± 0.1; S -0.75 ± 0.084; C -0.728 ± 0.11; D -0.751 ± 0.13; K -0.983 ± 0.2
E28: W -0.719 ± 0.11; V -0.142 ± 0.098; Y -0.785 ± 0.37
